Data: the supplement of paper PMC12636428

System: Saccharomyces cerevisiae
Experiment: transcriptional activation domain activity (GFP:mCherry ratio, weighted mean of sorted bins, harmonized to initial dataset scale) (arbitrary fluorescence ratio units); higher = stronger transcriptional activation
Settings: beta-estradiol 1 µM; induction time 4 h
Method in brief: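 Protein tiles carrying barcodes and fused to an estradiol-inducible synthetic transcription factor were placed at the URA3 locus of yeast diploids with a GFP reporter. Following 4 hours at 30 °C in SC with 1 uM beta-estradiol, cells were sorted into 8 GFP:mCherry bins, barcodes were sequenced, and tiles with fewer than 50 reads were discarded. Activation activity is given as the read-weighted mean of bin median fluorescence, averaged across barcodes and linearly mapped to the initial dataset scale.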

With “GAAAASGTKPKPTAAGGAAGAAAASGAKPKPTAAGAAGAAAASGAKPKPTGAA” the “transcriptional activation domain activity” value was 15300.
For “PKKLQEDTELETEQENQMLNQVGNINYTHDFSLSHEIDDLIRELFGVGTPQKL”, the “transcriptional activation domain activity” value was 65300.
In the case of “KISALCCVLSVFKIDDLVNDPILNKVLHLNNIYLDVLISLILRNNQPTIELMV”, the “transcriptional activation domain activity” value is reported as 57900.
In the case of “APSPPPAPEPVPEMKAIEAAPEPEPEPEPEDKWDVPVVAKKGKKAKKGAASQA”, the “transcriptional activation domain activity” value is reported as 25000.
For “NGQRFVQLLCNECGTVLELSVLLASVYLSLNMGDLVRLQPGCLYESQKRQWGP”, the “transcriptional activation domain activity” value was 16300.
“RQYRKRKAPAPAEGEENGEVAPAAPKPKRQRKKKPAPEEGAENTDGTAAAPKP” was tested, and the “transcriptional activation domain activity” value was 47000.
“AAAAGVPIASDESETEVEEEGSSSADIGQAATTGRGRSPPKQQQQQQSVAAVS” was tested, and the “transcriptional activation domain activity” value was 38500.
“GGETAAPPAEPAPAPAAEPEEEEEPVKGKGKGGKGGKKGGKGGKKAKKEEVPA” was tested, and the “transcriptional activation domain activity” value was 23600.
“LVLTGDAHSTYDVEVLVLMYILICGPFNFISGQLGEYRSIALVNVEFVVVWPA” was tested, and the “transcriptional activation domain activity” value was 63300.
For “PDISAYDDERLKEGRLIAEFILNRTQYAPDETSKNDRVSDSEVPWMDFPSELN”, the “transcriptional activation domain activity” value was 37600.
With “AAAPAAAANDGTTKKKGKGQKATRSPKGKGKSKKKGKGAAAAAAAPAAAKAVS” the “transcriptional activation domain activity” value was 14600.
With “SLEAWVPSVKLMMHDRSGLSRDGRTAVYHLIALTLRYSEIYVEQILVLWKGLV” the “transcriptional activation domain activity” value was 44200.
“DRFQLKKFGGYQVEFINYDYGVLQDVMLFSLQRHVNCQEVGVKMLWTIIISEW” was tested, and the “transcriptional activation domain activity” value was 49000.
For “AIATPVCAAGDFPGNLLLHHSITIPFIYVTLSFFYIFALFLFFLLSIFLVAWL”, the “transcriptional activation domain activity” value was 50300.
With “SLPLPDTLPFPLPDSLHLPLTDDFSLTLQDALPFLYMDSLPFPLPMPFLFYFW” the “transcriptional activation domain activity” value was 69600.
“LDDLKLQPIINRYRNCKGLSPSDLRLSLDQLKCLNHQFSVIILRILFKHCPLY” was tested, and the “transcriptional activation domain activity” value was 72900.
For “AYTDEDDAHQIRRKQLSMVLRGMPSVFDSLTHARVYLELIFRQMEHYLYVAAT”, the “transcriptional activation domain activity” value was 42200.
“AQPPAIEGKKSKKGEAPAAEVQKKEKKEKKPAEEGASKKGGSAKAAAAPAEDA” was tested, and the “transcriptional activation domain activity” value was 9790.
In the case of “MAAPPFLWTLFFFLFSILLLLSHTYFFLLLLACFFRFWFFYCSFYFSFDFLSS”, the “transcriptional activation domain activity” value is reported as 37900.
“EEEDRHRHSRHRSKRSRSRTYSEERHRSRTRDSARRSKTRTKSPDERPPASED” was tested, and the “transcriptional activation domain activity” value was 40900.
“RVRAAERAGQQAGREGRRGRQRGEHARRGGRAAHERAAQAHHRAPVPVPVRVP” was tested, and the “transcriptional activation domain activity” value was 62200.
In the case of “ALLKLLVMMLWEIEFYEPCFGALRLMDYITSEICPDSNLSAEATLLRIRTLIR”, the “transcriptional activation domain activity” value is reported as 58200.
For “YVVQYKNSLIGKHFKMLQQLGVFHLHDLCTPLLFDLWKATGELGALLWYPEIK”, the “transcriptional activation domain activity” value was 33300.
In the case of “SSPVVVSKIEDKNTEDKGADVKKTEESKKEEKTEVKQESKPEEKAEAKSEEKK”, the “transcriptional activation domain activity” value is reported as 29300.
In the case of “SLAFQVDFTRKYGMVGFFLFWMMSQEAHHDPLLLLLHSPLYFPIFLLFWVILN”, the “transcriptional activation domain activity” value is reported as 68800.
“GGLSELKDSLDDSQVQYAYARVEYANDSESTRVKFVLVIWIGESTKVMRKARV” was tested, and the “transcriptional activation domain activity” value was 46700.
For “FSTSLTSWSTSLNLLFFYMTWSTLVLSHSPLRIELIGITAIRTVLWLIPSLVF”, the “transcriptional activation domain activity” value was 63100.
“RHASRHASRHASRDASPERRTLRSNLAAAFSGHGRRSRPASPERGGGGGGGAG” was tested, and the “transcriptional activation domain activity” value was 26800.
“MASLRNHAEQLNAAVYRNYKKDRKVGEGAYAVVYLGTQLSTKKVVAIKKIKVG” was tested, and the “transcriptional activation domain activity” value was 49800.
For “MAGIVTRVCLILCSPLFPLSLRNFIILHCVYLPLSNSWYISPPFLLYCLQTVY”, the “transcriptional activation domain activity” value was 62700.
For “GNGKNKHTQRHRGGEKRNLPPSKKQRRKKKSRRIRHRKAQPHPDDEQLQDDKG”, the “transcriptional activation domain activity” value was 17000.
In the case of “GKDAEAADKPIEGKDAGDVEMNDAPEKEPEAEAAKPKGRGGRPKKVVPAAAAP”, the “transcriptional activation domain activity” value is reported as 23900.
“PVVAPKQPRRRAVAGERYERLAQVGEGTYGKVYKARNTGSGALVALKRIRMEQ” was tested, and the “transcriptional activation domain activity” value was 68200.
With “LKLLVCVLWCLDTFDFILNCNLLYLFLVTNYMNPLILIKRPPWSLVLHVAVTV” the “transcriptional activation domain activity” value was 53400.
For “EEDAGATSEPASTPKLKPETKPKPKAAPKPKPKAEETDSSAKPKAKPKARASS”, the “transcriptional activation domain activity” value was 33000.
With “PSLPPSHPVPSLSLFCFFVFFFAFFFFFFMPIFYYNLLISHFPFCRCWRCLHM” the “transcriptional activation domain activity” value was 26200.
With “DSNYLAFLKFDDLENEKFHSSASSISSPSYSSPSFSSYRNRKKSEFMDDESCT” the “transcriptional activation domain activity” value was 73200.
In the case of “MADAVAEGTAKLQLDEETGEMVSKGELKKRLQKRAKKAAQAKAKADAPAPSAA”, the “transcriptional activation domain activity” value is reported as under 6570.
“RPEEAPSTDEEESRGECWSEGKLCLENYMRLNDLEPENSDPEQLAHVKELLEK” was tested, and the “transcriptional activation domain activity” value was 47500.
With “VAALLATSLCMIYPLWSIFSIVQVIYMFANICLLVWVIPKGLHFACYYLLGVS” the “transcriptional activation domain activity” value was 37400.
For “DNAHVLQEYLAVFRHLLSYHDPKLSSHMETIGFMPDLYAIPWFLTLFTHVFPL”, the “transcriptional activation domain activity” value was 58600.
In the case of “TLDTVMRDTANMDWVRFLPLSLLFTSFIFSPLSFSLFRMYVHALLFFCFTFTP”, the “transcriptional activation domain activity” value is reported as 49600.
For “MTYLPFINFSLDIFVIVIVIVIYFPFFVTNFFNWFFSPFWCYLINYLFNLNLF”, the “transcriptional activation domain activity” value was 52400.
In the case of “EQSGNGDINNGTRNDIEINLYRSHPTMIMSKVMKREVKPLSENYIIIQDCFLK”, the “transcriptional activation domain activity” value is reported as 62500.
With “DNDYNLDDTNNDNTNSMQSILEDFVSSEEALKFMPDAGRDARRYSEVVTSSFP” the “transcriptional activation domain activity” value was 89300.
In the case of “SMLEQQESTSAARAEGQRGGAVQEGDIELVDAACVQLASRISPKSLLQRPMVD”, the “transcriptional activation domain activity” value is reported as 31900.
With “IKDFEAHLFAIILYHLSFFGCRALGVVSMLKCQGQMCDPWSLMYRGLYVFYRL” the “transcriptional activation domain activity” value was 35900.
With “APAPIAAEPAPAPAVETPAPAPAPATEEKKEEAAAPAVEATPAPAAAPAAATT” the “transcriptional activation domain activity” value was 30500.
In the case of “FLVAFLLMCLHSPDKSTVAMLILGVFSLLLLLFWAASLSFDGQPSKYGWLLRH”, the “transcriptional activation domain activity” value is reported as 50200.
In the case of “REGGRRGRGRARSRRQGGKREERGRTRKGRKGGENRPKREGGQGGGERARRRE”, the “transcriptional activation domain activity” value is reported as 41300.
“KVRAKEIVILPSEEDDNYKPLDTSNATTSSSEPRVDVVQEGLFREALNENDGK” was tested, and the “transcriptional activation domain activity” value was 32500.
For “GLFRVAGRVLHVNRLNDDFDAGADYDLRKATPADLDPHVVASVLKSYLRTLRG”, the “transcriptional activation domain activity” value was 27100.
In the case of “VKKAAEDGEDEAEEKPAPKAKRGRKKAELDEDDEEEAQPAKKKAKKAAPKAAA”, the “transcriptional activation domain activity” value is reported as 21400.
In the case of “GHKGRHLAEAAGLALGAKKLMKHRSHSRPGRSPSPEGHHRARHLAEAGIAAAG”, the “transcriptional activation domain activity” value is reported as 43900.
“ERHLLPGNIFWAVAFGWWLSGCCMIVSGLLYLVPMGGGRYGKLIYGLGWYLAW” was tested, and the “transcriptional activation domain activity” value was 65400.
For “NQQPVFRAKYLLRQLFHLCNRTEHELRTLWTPAMVVLVARRLFDSIHPALGSL”, the “transcriptional activation domain activity” value was 58300.
In the case of “KSKKKRRSKRKPKNQKKKTTGKDAQEHLDDEQTRNLEDGQDDKKDEQDDDNKK”, the “transcriptional activation domain activity” value is reported as 31400.
With “NRKTIGKQDPYCAARLGKEAKKTETDRRGGQTPRWDQELRYTVHDSPDYYQLK” the “transcriptional activation domain activity” value was 31200.
In the case of “YYAECCTHTGNAHKVQRKMLNPVFTTKHMKARMWYQFMLLFLKEALMNELKGY”, the “transcriptional activation domain activity” value is reported as 14300.
With “MVGRGCAVQVMIYPLFFVPGFLGFGFLVCYHFPFFMSLLWVLAWLRFWLVISS” the “transcriptional activation domain activity” value was 64400.
For “GHKAEESVPRKPSRSKSKAREAEWAPDGGEEPVSRKPSRSKAKPKAAEVEKED”, the “transcriptional activation domain activity” value was 23200.
